We go through 2 proteins from article PMC6173795, “The FapF Amyloid Secretion Transporter Possesses an Atypical Asymmetric Coiled Coil” (Journal of Molecular Biology, 2018).

Data set [1] deals with the molecule itself. Description: crystal structure; synthetic peptide at 10 mg/ml; 0.2 M zinc acetate dihydrate, 0.1 M sodium cacodylate pH 6.5, 10% v/v 2-propanol; data processed in P1, six chains in the asymmetric unit.
Data set [2] concerns the molecule itself. Nature of the data set: SEC-MALS; Superdex 75 10/300 GL, phosphate buffer (20 mM PO4, 150 mM NaCl, pH 6.8), 100 ul FapF3-40 samples at 1 mg/ml, 0.25 ml/min; size exclusion profiles of wild type, R33A and R33E.

What is called stoichiometry N is the number of molecules, sites or subunits per partner or assembly.

B1: FapFCC synthetic peptide (predicted coiled-coil region of FapF, residues 3-40) (peptide)
chain: DVDIETLKQELLELKQRYEAQQKALAVLEQRVRQVEDQ
notes: FapF amyloid secretion transporter of Pseudomonas, coiled-coil region, residues 3-40; Parallel trimer; six chains (two trimers) in the asymmetric unit of the crystal; also called FapFCC peptide; periplasmic domain of FapF; source: synthetic peptide (ChinaPeptides, 97.5% purity)
Regarding B1, the “stoichiometry N” value in data set [1] was 3.

B2: recombinant FapF3-40 (FapFCC), wild type (domain or fragment, Pseudomonas UK4)
chain: DVDIETLKQELLELKQRYEAQQKALAVLEQRVRQVEDQ
notes: Cloned into pNIC28-Bsa4 (vector: Addgene plasmid no. 26103); also called recombinant FapFCC; not shown: His6, N-terminal, cleaved
Turning to B2, the “stoichiometry N” value in data set [2] was found to be 3.
